B1: LPCAT4 (parent)
chain: HDPLYGKLFSTYLRPPHTSRGTSQ
B2: DCAF4 (parent)
chain: TTKCVRQYEGHVNEYAYLPLHVHE

Variants of: B1
Experiment: protein stability index of a GFP-peptide fusion (GPS, HEK-293T) (PSI 1-6); higher = more stable
Conditions: c terminus: a fixed tail appended
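Also: lentivirally expressed fusions sorted by FACS into six bins by GFP to DsRed ratio, PSI derived from sequencing read proportions per bin multiplied by bin number.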

Variant | protein stability index
MDPLYGKLFSTYLRPPHTSRGTSQ | 2.98
KDPLYGKLFSTYLRPPHTSRGTSQ | 3.32
SDPLYGKLFSTYLRPPHTSRGTSQ | 3.68
CDPLYGKLFSTYLRPPHTSRGTSQ | 3.66
WDPLYGKLFSTYLRPPHTSRGTSQ | 2.38
EDPLYGKLFSTYLRPPHTSRGTSQ | 2.83
NDPLYGKLFSTYLRPPHTSRGTSQ | 3.2
ADPLYGKLFSTYLRPPHTSRGTSQ | 4.01
DDPLYGKLFSTYLRPPHTSRGTSQ | 3.52
TDPLYGKLFSTYLRPPHTSRGTSQ | 3.96
FDPLYGKLFSTYLRPPHTSRGTSQ | 2.12
QDPLYGKLFSTYLRPPHTSRGTSQ | 3.18
GDPLYGKLFSTYLRPPHTSRGTSQ | 2.88
RDPLYGKLFSTYLRPPHTSRGTSQ | 3.09
LDPLYGKLFSTYLRPPHTSRGTSQ | 4.22
PDPLYGKLFSTYLRPPHTSRGTSQ | 3.1
VDPLYGKLFSTYLRPPHTSRGTSQ | 4
IDPLYGKLFSTYLRPPHTSRGTSQ | 3.4
HIPLYGKLFSTYLRPPHTSRGTSQ | 1.96
HAPLYGKLFSTYLRPPHTSRGTSQ | 2.37
HCPLYGKLFSTYLRPPHTSRGTSQ | 2.28
HFPLYGKLFSTYLRPPHTSRGTSQ | 2.27
HHPLYGKLFSTYLRPPHTSRGTSQ | 2.19
HEPLYGKLFSTYLRPPHTSRGTSQ | 2.74
HGPLYGKLFSTYLRPPHTSRGTSQ | 2.56

Variants of: B2
Experiment: as above
Conditions: c terminus: a fixed tail appended

Variant | protein stability index
TTKCVRQYEGHVNEYAYYPLHVHE | 2.38
TTKCVRQYEGHVNEYAYTPLHVHE | 2.79
TTKCVRQYEGHVNEYAYEPLHVHE | 3.58
TTKCVRQYEGHVNEYAYIPLHVHE | 2.26
TTKCVRQYEGHVNEYAYAPLHVHE | 2.92
TTKCVRQYEGHVNEYAYFPLHVHE | 2.51
TTKCVRQYEGHVNEYAYMPLHVHE | 2.82
TTKCVRQYEGHVNEYAYRPLHVHE | 2.89
TTKCVRQYEGHVNEYAYKPLHVHE | 2.76
TTKCVRQYEGHVNEYAYHPLHVHE | 3.09
TTKCVRQYEGHVNEYAYSPLHVHE | 2.98
TTKCVRQYEGHVNEYAYGPLHVHE | 3.09
TTKCVRQYEGHVNEYAYNPLHVHE | 3.15
TTKCVRQYEGHVNEYAYDPLHVHE | 3.8
TTKCVRQYEGHVNEYAYVPLHVHE | 2.48
TTKCVRQYEGHVNEYAYQPLHVHE | 3.16
TTKCVRQYEGHVNEYAYPPLHVHE | 2.75
TTKCVRQYEGHVNEYAYWPLHVHE | 2.28
TTKCVRQYEGHVNEYAYCPLHVHE | 2.74
TTKCVRQYEGHVNEYAYLPLHVHN | 2.46
TTKCVRQYEGHVNEYAYLPLHVHW | 2.67
TTKCVRQYEGHVNEYAYLPLHVHH | 2.23
TTKCVRQYEGHVNEYAYLPLHVHQ | 2.29
TTKCVRQYEGHVNEYAYLPLHVHC | 2.25

Variant | protein stability index
TTKCVRQYEGHVNEYAYLPLHVHG | 2.75
TTKCVRQYEGHVNEYAYLPLHVHY | 1.89
TTKCVRQYEGHVNEYAYLPLHVHK | 2.29
TTKCVRQYEGHVNEYAYLPLHVHM | 1.84
TTKCVRQYEGHVNEYAYLPLHVHP | 2.24
TTKCVRQYEGHVNEYAYLPLHVHA | 1.17
TTKCVRQYEGHVNEYAYLPLHVHS | 2.07
TTKCVRQYEGHVNEYAYLPLHVHV | 2.02
TTKCVRQYEGHVNEYAYLPLHVHI | 2.1
TTKCVRQYEGHVNEYAYLPLHVHF | 2.85
TTKCVRQYEGHVNEYAYLPLHVHD | 2.84
TTKCVRQYEGHVNEYAYLPLHVHR | 2.18
TTKCVRQYEGHVNEYAYLPLHVHL | 2.14
TTKCVRQYEGHVNEYAYLPLHVHT | 2.1
TTKCVRQYEGHVNEYAYLFLHVHE | 1.71
TTKCVRQYEGHVNEYAYLRLHVHE | 1.91
TTKCVRQYEGHVNEYAYLNLHVHE | 2.33
TTKCVRQYEGHVNEYAYLVLHVHE | 2.22
TTKCVRQYEGHVNEYAYLILHVHE | 2.46
TTKCVRQYEGHVNEYAYLLLHVHE | 2.16
TTKCVRQYEGHVNEYAYLTLHVHE | 1.53
TTKCVRQYEGHVNEYAYLCLHVHE | 1.84
TTKCVRQYEGHVNEYAYLGLHVHE | 2.26
TTKCVRQYEGHVNEYAYLQLHVHE | 1.75

Variant | protein stability index
TTKCVRQYEGHVNEYAYLWLHVHE | 2.57
TTKCVRQYEGHVNEYAYLHLHVHE | 1.96
TTKCVRQYEGHVNEYAYLKLHVHE | 1.87
TTKCVRQYEGHVNEYAYLELHVHE | 1.82
TTKCVRQYEGHVNEYAYLDLHVHE | 3.02
TTKCVRQYEGHVNEYAYLYLHVHE | 2.67
TTKCVRQYEGHVNEYAYLALHVHE | 1.89
TTKCVRQYEGHVNEYAYLSLHVHE | 1.46
TTKCVRQYEGHVNEYAYLMLHVHE | 2.47
TTKCVRQYEGHVNEYAYLPLHSHE | 3.24
TTKCVRQYEGHVNEYAYLPLHCHE | 2.54
TTKCVRQYEGHVNEYAYLPLHHHE | 2.96
TTKCVRQYEGHVNEYAYLPLHPHE | 2.63
TTKCVRQYEGHVNEYAYLPLHTHE | 3.12
TTKCVRQYEGHVNEYAYLPLHGHE | 2.13
TTKCVRQYEGHVNEYAYLPLHAHE | 2.79
TTKCVRQYEGHVNEYAYLPLHYHE | 2.43
TTKCVRQYEGHVNEYAYLPLHLHE | 2.54
TTKCVRQYEGHVNEYAYLPLHMHE | 3.06
TTKCVRQYEGHVNEYAYLPLHFHE | 2.01
TTKCVRQYEGHVNEYAYLPLHRHE | 2.58
TTKCVRQYEGHVNEYAYLPLHNHE | 3.19
TTKCVRQYEGHVNEYAYLPLHDHE | 3.85
TTKCVRQYEGHVNEYAYLPLHWHE | 2.61

Variant | protein stability index
TTKCVRQYEGHVNEYAYLPLHQHE | 3.3
TTKCVRQYEGHVNEYAYLPLHKHE | 3.27
TTKCVRQYEGHVNEYAYLPLHEHE | 3.65
TTKCVRQYEGHVNEYAYLPLHIHE | 2.42
TTKCVRQYEGHVNEYAYLPMHVHE | 2.63
TTKCVRQYEGHVNEYAYLPTHVHE | 2.85
TTKCVRQYEGHVNEYAYLPCHVHE | 2.67
TTKCVRQYEGHVNEYAYLPIHVHE | 2.74
TTKCVRQYEGHVNEYAYLPNHVHE | 3.1
TTKCVRQYEGHVNEYAYLPPHVHE | 3.31
TTKCVRQYEGHVNEYAYLPKHVHE | 2.8
TTKCVRQYEGHVNEYAYLPRHVHE | 3.21
TTKCVRQYEGHVNEYAYLPWHVHE | 2.33
TTKCVRQYEGHVNEYAYLPFHVHE | 2.35
TTKCVRQYEGHVNEYAYLPVHVHE | 2.44
TTKCVRQYEGHVNEYAYLPQHVHE | 3.06
TTKCVRQYEGHVNEYAYLPSHVHE | 3.13
TTKCVRQYEGHVNEYAYLPYHVHE | 2.32
TTKCVRQYEGHVNEYAYLPAHVHE | 2.78
TTKCVRQYEGHVNEYAYLPEHVHE | 3.53
TTKCVRQYEGHVNEYAYLPHHVHE | 3
TTKCVRQYEGHVNEYAYLPDHVHE | 3.64
TTKCVRQYEGHVNEYAYLPGHVHE | 2.41
TTKCVRQYEGHVNEYAYLPLTVHE | 2.8

Variant | protein stability index
TTKCVRQYEGHVNEYAYLPLSVHE | 3.05
TTKCVRQYEGHVNEYAYLPLMVHE | 2.46
TTKCVRQYEGHVNEYAYLPLWVHE | 1.75
TTKCVRQYEGHVNEYAYLPLCVHE | 2.56
TTKCVRQYEGHVNEYAYLPLPVHE | 2.63
TTKCVRQYEGHVNEYAYLPLDVHE | 3.55
TTKCVRQYEGHVNEYAYLPLNVHE | 3.33
TTKCVRQYEGHVNEYAYLPLIVHE | 2.12
TTKCVRQYEGHVNEYAYLPLQVHE | 2.66
TTKCVRQYEGHVNEYAYLPLAVHE | 2.58
TTKCVRQYEGHVNEYAYLPLEVHE | 3.27
TTKCVRQYEGHVNEYAYLPLVVHE | 2.25
TTKCVRQYEGHVNEYAYLPLRVHE | 2.69
TTKCVRQYEGHVNEYAYLPLLVHE | 2.2
TTKCVRQYEGHVNEYAYLPLKVHE | 2.16
TTKCVRQYEGHVNEYAYLPLFVHE | 1.87
TTKCVRQYEGHVNEYAYLPLGVHE | 2.06
TTKCVRQYEGHVNEYAYLPLYVHE | 1.9
TTKCVRQYEGHVNEYAYLPLHVQE | 3.38
TTKCVRQYEGHVNEYAYLPLHVCE | 2.52
TTKCVRQYEGHVNEYAYLPLHVDE | 3.45
TTKCVRQYEGHVNEYAYLPLHVME | 2.12
TTKCVRQYEGHVNEYAYLPLHVGE | 2.76
TTKCVRQYEGHVNEYAYLPLHVVE | 2.19

Variant | protein stability index
TTKCVRQYEGHVNEYAYLPLHVAE | 2.78
TTKCVRQYEGHVNEYAYLPLHVKE | 3.44
TTKCVRQYEGHVNEYAYLPLHVTE | 2.37
TTKCVRQYEGHVNEYAYLPLHVWE | 1.9
TTKCVRQYEGHVNEYAYLPLHVSE | 2.73
TTKCVRQYEGHVNEYAYLPLHVRE | 2.48
TTKCVRQYEGHVNEYAYLPLHVEE | 3.21
TTKCVRQYEGHVNEYAYLPLHVFE | 1.46
TTKCVRQYEGHVNEYAYLPLHVYE | 2.24
TTKCVRQYEGHVNEYAYLPLHVNE | 2.81
TTKCVRQYEGHVNEYAYLPLHVIE | 3.56
TTKCVRQYEGHVNEYAYLPLHVLE | 2.51
TTKCVRQYEGHVNEYAYLPLHVPE | 3.32
TTKCVRQYEGHVNEYQYLPLHVHE | 3.01
TTKCVRQYEGHVNEYYYLPLHVHE | 1.87
TTKCVRQYEGHVNEYVYLPLHVHE | 2.2
TTKCVRQYEGHVNEYMYLPLHVHE | 2.34
TTKCVRQYEGHVNEYRYLPLHVHE | 2.6
TTKCVRQYEGHVNEYLYLPLHVHE | 2.33
TTKCVRQYEGHVNEYSYLPLHVHE | 2.45
TTKCVRQYEGHVNEYNYLPLHVHE | 2.6
TTKCVRQYEGHVNEYPYLPLHVHE | 3.02
TTKCVRQYEGHVNEYWYLPLHVHE | 1.84
TTKCVRQYEGHVNEYTYLPLHVHE | 2.82

Variant | protein stability index
TTKCVRQYEGHVNEYATLPLHVHE | 3.65
TTKCVRQYEGHVNEYAQLPLHVHE | 3.27
TTKCVRQYEGHVNEYAFLPLHVHE | 2.55
TTKCVRQYEGHVNEYAELPLHVHE | 4.23
TTKCVRQYEGHVNEYADLPLHVHE | 4.01
TTKCVRQYEGHVNEYAALPLHVHE | 4.37
TTKCVRQYEGHVNEYAILPLHVHE | 2.86
TTKCVRQYEGHVNEYANLPLHVHE | 3.08
TTKCVRQYEGHVNEYASLPLHVHE | 3.24
TTKCVRQYEGHVNEYARLPLHVHE | 3.06
TTKCVRQYEGHVNEYALLPLHVHE | 3.79
TTKCVRQYEGHVNEYAGLPLHVHE | 3.37
TTKCVRQYEGHVNEYAMLPLHVHE | 3.06
TTKCVRQYEGHVNEYAHLPLHVHE | 2.94
TTKCVRQYEGHVNEYAWLPLHVHE | 2.69
TTKCVRQYEGHVNEYAKLPLHVHE | 2.96
TTKCVRQYEGHVNEYACLPLHVHE | 3.51
TTKCVRQYEGHVNEYAPLPLHVHE | 3.82
TTKCVRQYEGHVNEYAVLPLHVHE | 2.81

— the supplement of paper PMC10567573
